Test results as given in US20210115154A1 (Chugai, published 2021).

Tests used:
human MASP-1 = target: T1, human MASP-1 (human, UniProt P48740 20-699); test: cell-based or functional assay
T1 sequence: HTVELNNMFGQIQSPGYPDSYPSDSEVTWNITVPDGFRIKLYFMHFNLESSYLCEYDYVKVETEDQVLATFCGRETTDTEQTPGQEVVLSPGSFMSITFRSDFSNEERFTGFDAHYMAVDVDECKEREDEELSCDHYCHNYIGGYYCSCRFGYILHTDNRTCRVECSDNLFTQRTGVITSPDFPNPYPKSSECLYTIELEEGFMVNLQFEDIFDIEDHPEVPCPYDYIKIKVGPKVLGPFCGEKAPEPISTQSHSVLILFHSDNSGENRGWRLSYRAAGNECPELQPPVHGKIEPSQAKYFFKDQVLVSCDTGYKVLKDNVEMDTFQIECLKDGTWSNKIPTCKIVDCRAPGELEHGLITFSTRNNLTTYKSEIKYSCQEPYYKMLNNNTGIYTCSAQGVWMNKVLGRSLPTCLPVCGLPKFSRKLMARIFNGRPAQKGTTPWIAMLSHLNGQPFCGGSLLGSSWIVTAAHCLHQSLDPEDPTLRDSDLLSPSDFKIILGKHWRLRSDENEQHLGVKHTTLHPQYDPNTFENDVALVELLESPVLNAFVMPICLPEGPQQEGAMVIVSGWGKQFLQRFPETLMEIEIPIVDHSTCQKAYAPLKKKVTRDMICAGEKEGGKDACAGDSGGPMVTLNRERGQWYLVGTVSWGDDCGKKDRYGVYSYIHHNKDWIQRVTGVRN

[1] = target: T2, Human MASP-1 (CCP1-CCP2-SP S646A) (human, UniProt P48740 298-699, labelled with NHS-PEG4-Biotin (sites not given)); test: ELISA, antibody captured by goat anti-human IgG, 8 nM biotinylated antigen, streptavidin-HRP
T2 construct: biotinylated for the ELISAs; also called N-terminally Flag-tagged human MASP-1 (CCP1-CCP2-SP S646A); not shown: N-terminal Flag-tag
T2 sequence: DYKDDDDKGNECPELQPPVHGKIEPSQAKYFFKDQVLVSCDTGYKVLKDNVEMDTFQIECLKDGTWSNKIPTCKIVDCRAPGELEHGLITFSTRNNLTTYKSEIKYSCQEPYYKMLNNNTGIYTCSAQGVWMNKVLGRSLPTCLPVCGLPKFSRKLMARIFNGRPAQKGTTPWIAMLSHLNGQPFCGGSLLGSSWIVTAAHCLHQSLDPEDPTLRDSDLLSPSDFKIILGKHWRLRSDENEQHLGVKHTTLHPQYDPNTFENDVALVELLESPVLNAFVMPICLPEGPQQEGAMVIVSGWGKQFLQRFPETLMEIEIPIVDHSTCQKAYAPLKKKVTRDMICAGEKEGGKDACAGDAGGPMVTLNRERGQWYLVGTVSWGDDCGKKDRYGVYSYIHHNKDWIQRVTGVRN
Method: (§1) ELISA assay was used to check the cross-reactivity of the chimeric monoclonal antibodies generated in 3.1 against human MASP-1 and human MASP-3. Goat anti-human IgG polyclonal antibody (Thermo Scientific, H10500) was diluted to 1 micro g/ml with PBS (-) and added to 384-well MAXISorp plates (Nunc, Cat No. 164688). The plates were incubated for 1 hour at room temperature, and blocked with Blocking One (Nacalai Tesque, Cat No. 03953-95) diluted 5 times. The plates were incubated for 1 hour, washed, and anti-MASP-1 antibody was added and incubated for 1 hour. Human MASP-1 (CCP1-CCP2-SP S646A) or human MASP-3 (CCP1-CCP2-SP S664A) was labelled with NHS-PEG4-Biotin (PIERCE, Cat No. 21329). After incubation, the plates were washed and 8 nM of labeled antigen was added and incubated for 1 hour. After incubation, the plates were washed and Streptavidin-HRP conjugate (Thermo Scientific 21130) were added. After 1 hour incubation, binding of biotinylated antigen was detected by the addition of ABTS (KPL, Cat No. 50-66-06). Anti-MASP-1 monoclonal antibodies listed in Table 5 were selected as MASP-1 specific antibodies and used for further analysis.

[2] = target: T3, Human MASP-3 (CCP1-CCP2-SP S664A) (human, labelled with NHS-PEG4-Biotin (sites not given)); test: as above
T3 construct: Biotinylated for the cross-reactivity ELISA; also called N-terminally Flag-tagged human MASP-3 (CCP1-CCP2-SP S664A); not shown: N-terminal Flag-tag
T3 chain: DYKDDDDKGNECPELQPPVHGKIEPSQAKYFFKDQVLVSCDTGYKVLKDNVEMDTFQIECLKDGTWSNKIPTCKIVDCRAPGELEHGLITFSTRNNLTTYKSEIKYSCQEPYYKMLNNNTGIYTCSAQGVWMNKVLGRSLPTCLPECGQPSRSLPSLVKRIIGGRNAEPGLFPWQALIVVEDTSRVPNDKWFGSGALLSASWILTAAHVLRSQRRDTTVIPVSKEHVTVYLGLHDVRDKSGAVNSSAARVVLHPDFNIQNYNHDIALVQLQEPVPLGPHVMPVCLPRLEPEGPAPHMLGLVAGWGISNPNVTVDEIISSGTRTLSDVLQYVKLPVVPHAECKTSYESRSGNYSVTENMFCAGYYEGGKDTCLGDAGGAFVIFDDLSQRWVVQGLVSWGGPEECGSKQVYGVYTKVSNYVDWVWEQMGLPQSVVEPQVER
Method: as §1

B1: MAS0154dd (antibody, human IgG4 S228P, kappa, V domains shown)
VH: QSVEESGGRLVTPGTPLTLTCTVSGFSLSNYNMGWVRQAPGEGLEYIGIISSQGDIYYATWAKGRFTISKTSTTVDLKITSPTTEDTATYFCARARHVGSAADSYFHLWGLGTLVTVSS
VL: AVVLTQTASPVSAAVGGTVTINCQASEEIYRNLAWYQQKPGQRPKLLIYGASNLASGVPSRFSGSGSGTEYTLTISDLECADAATYYCQRYAWGKNSADGNTFGGGTKVEIKR
notes: Rabbit/human chimeric antibody: rabbit variable regions recombined with F760G4 and kOMTC constant regions; also called anti-MASP-1 chimeric mAb MAS0154dd
B1 was tested, and the “IC50 of inhibition of human C4c deposition (C4c ELISA, normal human serum on mannan)” value (human MASP-1) was 0.11 µg/mL, the “absorbance at 405 nm after background subtraction” value [1] was 1.95 absorbance at 405 nm and the “absorbance at 405 nm after background subtraction” value [2] was 0.078 absorbance at 405 nm.

B2: MAS0177hh (antibody, human IgG4 S228P, kappa, V domains shown)
VH: QSVEESGGRLVTPGTPLTLTCTASGFSLSSAYMNWVRQAPGKGLEWIGIIYASGSTWYASWAKGRFTISKTSTTVDLKITSPTTEDTATYFCARDDYGTADLWGPGTLVTVSS
VL: AVVLTQTASPVSAPVGGTVTIKCQASQSIGSSLAWYQQKPGQSPKLLIYGASTLVSGVSSRFSGSRSGTEFSLTISDLECADAATYYCQNYYLSSSSADRRTFGGGTKVEIKR
notes: Rabbit/human chimeric antibody: rabbit variable regions recombined with F760G4 and kOMTC constant regions; also called anti-MASP-1 chimeric mAb MAS0177hh
B2 was tested, and the “IC50 of inhibition of human C4c deposition (C4c ELISA, normal human serum on mannan)” value (human MASP-1) was 3.29 µg/mL, the “absorbance at 405 nm after background subtraction” value [1] was 0.898 absorbance at 405 nm and the absorbance at 405 nm after background subtraction (absorbance at 405 nm) [2] was 0.388.

B3: MAS0141aa (antibody, human IgG4 S228P, kappa, V domains shown)
VH: QSVEESGGRLVTPGTPLTLTCTASGFSLINYYMTWVRQAPGKGLEWIGIINTDGGTYYASWAKGRFTISRTSTTVDLKMTSLTTEDTATYFCARGVFTGGWTGMRTNLWGPGTLVTVSS
VL: DVVMTQTPASVEAAVGGTVTIKCQASEDIYILLAWYQQKPGQPPKLLIYAASNLESGVPSRFKGSGSGTEFTLTISDLECADAATYYCQCTYGSSSSNAFGGGTKVEIKR
notes: Rabbit/human chimeric antibody: rabbit variable regions recombined with F760G4 and kOMTC constant regions; also called anti-MASP-1 chimeric mAb MAS0141aa
B3 was tested, and the “IC50 of inhibition of human C4c deposition (C4c ELISA, normal human serum on mannan)” value (human MASP-1) was 0.45 µg/mL, the “absorbance at 405 nm after background subtraction” value [1] was 1.51 absorbance at 405 nm and the “absorbance at 405 nm after background subtraction” value [2] was -0.147 absorbance at 405 nm.

B4: MAS0114bb (antibody, human IgG4 S228P, kappa, V domains shown)
VH: QSVEESGGRLVTPGTPLTLTCTASGFDINNYAIHWVRQAPGEGLEWIGYIYARSGVTWYASWVKGRFTISKTSTTVDLKMTSLTTEDTATYFCARVLAGGGYANTGLSLWGPGTLVTVSS
VL: DIVMTQTPSSVSAAVGGTVTIKCQASQNIGYSSAWYQQKPGQRPKLMIYGASTLASGVPSRFSGSGSGTEYTLTISGVQCDDAATYYCQSNYISSGSVDGTFGGGTKVEIKR
notes: Rabbit/human chimeric antibody: rabbit variable regions recombined with F760G4 and kOMTC constant regions; also called anti-MASP-1 chimeric mAb MAS0114bb
In the case of B4, the “IC50 of inhibition of human C4c deposition (C4c ELISA, normal human serum on mannan)” value (human MASP-1) is reported as 0.14 µg/mL, the “absorbance at 405 nm after background subtraction” value [1] is reported as 1.79 absorbance at 405 nm and the “absorbance at 405 nm after background subtraction” value [2] is reported as -0.068 absorbance at 405 nm.

B5: MAS0116aa (antibody, human IgG4 S228P, kappa, V domains shown)
VH: QSLEESGGRLVTPGTPLTLTCTASGFSLSSCYMSWVRQAPGEGLEWIGTIYTGSGATYYASWAKGRFTVSITSTTVDLKITSPTTEDTATYFCARAIYPGSSSSNLCAFDLWGPGTLVTVSS
VL: QVLTQTPASVSAAVGGTVTINCQASQSVYDNNWLAWYQQKPGQPPKLLIYQASSLASGVPSRFKGSGSGAQFTLTISDLECDDAATYFCQGYYAGVLYSFGGGTKVEIKR
notes: Rabbit/human chimeric antibody: rabbit variable regions recombined with F760G4 and kOMTC constant regions; also called anti-MASP-1 chimeric mAb MAS0116aa
With B5 the “IC50 of inhibition of human C4c deposition (C4c ELISA, normal human serum on mannan)” value (human MASP-1) was 0.47 µg/mL, the “absorbance at 405 nm after background subtraction” value [1] was 1.72 absorbance at 405 nm and the “absorbance at 405 nm after background subtraction” value [2] was 0.055 absorbance at 405 nm.

B6: MAS0102dd (antibody, human IgG4 S228P, kappa, V domains shown)
VH: QSVEESGGRLVTPGTPLTLTCTVSGFSLSSYAMSWVRQAPGKGLEWIGIITNLDNTYYANWAKGRFTISKTSTTVDLKITSPTTEDTAAYLCARERIKRKYSYDDYGGWAFDPWGPGTLVTVSS
VL: QVLTQTPSSVSGPVGGTVTINCQAIENIYRSLAWYQQKPGQPPKLLIYDTSDLASGVPSRFSGSGSGTEYTLTISGVQCDDAATYYCQSYYYSSVTYNAFGGGTKVEIKR
notes: Rabbit/human chimeric antibody: rabbit variable regions recombined with F760G4 and kOMTC constant regions; also called anti-MASP-1 chimeric mAb MAS0102dd
B6 was tested, and the “IC50 of inhibition of human C4c deposition (C4c ELISA, normal human serum on mannan)” value (human MASP-1) was 0.29 µg/mL, the “absorbance at 405 nm after background subtraction” value [1] was 1.98 absorbance at 405 nm and the “absorbance at 405 nm after background subtraction” value [2] was -0.027 absorbance at 405 nm.
